These results are taken from patent US20230241168A1 (ALPINE IMMUNE SCIENCES, published 2023).

Holding throughout (experiment): cell-based or functional assay
Assay [1] deals with recombinant human APRIL (human) (UniProt O75888). More on the design: IC50 APRIL (Δ TACI 30-110-Fc) / IC50 BAFF (Δ TACI 30-110-Fc): unit not given beside the values.
Assay [2] concerns the target recombinant human BAFF (human) (UniProt Q9Y275). More on the design: IC50 APRIL (Δ TACI 30-110-Fc) / IC50 BAFF (Δ TACI 30-110-Fc): unit not given beside the values.
In assay [3] the target is T1, recombinant human APRIL (human, UniProt O75888 105-250, limits assumed).
T1 sequence (looked up): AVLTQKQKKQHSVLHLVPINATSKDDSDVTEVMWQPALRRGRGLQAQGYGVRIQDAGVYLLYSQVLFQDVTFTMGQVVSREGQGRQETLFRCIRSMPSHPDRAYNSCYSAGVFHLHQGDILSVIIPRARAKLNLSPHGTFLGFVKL

Assay [4] has as its target T2, recombinant human BAFF (human, UniProt Q9Y275 134-285).
In assay [5] the target is T1, recombinant human APRIL. The source holds these as a separate data set.
Assay [6] has as its target T2, recombinant human BAFF. This is another data set of the same source.
The target of another assay is T3, human CD80 (human, UniProt P33681 35-288).
T3 sequence (looked up): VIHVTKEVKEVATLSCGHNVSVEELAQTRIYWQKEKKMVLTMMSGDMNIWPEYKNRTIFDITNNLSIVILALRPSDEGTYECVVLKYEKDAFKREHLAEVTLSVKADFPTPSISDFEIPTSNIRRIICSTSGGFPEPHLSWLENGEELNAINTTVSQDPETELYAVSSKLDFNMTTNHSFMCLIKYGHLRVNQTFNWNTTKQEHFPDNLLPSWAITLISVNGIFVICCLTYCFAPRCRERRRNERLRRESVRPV

The next assay addresses T4, human CD86 (human, UniProt P42081 24-329).
T4 sequence (looked up): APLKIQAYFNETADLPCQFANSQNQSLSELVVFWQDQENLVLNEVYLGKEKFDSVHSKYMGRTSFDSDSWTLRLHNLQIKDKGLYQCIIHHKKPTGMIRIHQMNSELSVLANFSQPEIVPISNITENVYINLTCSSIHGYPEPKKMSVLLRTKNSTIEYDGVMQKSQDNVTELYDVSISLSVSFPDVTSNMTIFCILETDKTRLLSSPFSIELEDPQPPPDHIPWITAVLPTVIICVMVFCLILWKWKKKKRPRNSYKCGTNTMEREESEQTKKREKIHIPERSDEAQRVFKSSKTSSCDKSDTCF

Read-outs that look alike come from different tables or passages of the source. No end group written: not given here.

Consider TACI 30-110-Fc (Fc fusion), for which, in assay [1], the IC50 (nM) APRIL came out at 3850 nM and the IC50 APRIL (Δ TACI 30-110-Fc) was determined as 1. Besides, in assay [2], the IC50 (nM) BAFF amounted to 5770 nM and the IC50 BAFF (Δ TACI 30-110-Fc) is 1.
On to TACI 13-118-Fc (Fc fusion), for which, in assay [1], the IC50 (nM) APRIL was found to be 9100 nM and the IC50 APRIL (Δ TACI 30-110-Fc) was found to be 2.37. Besides, in assay [2], the IC50 (nM) BAFF came to 7700 nM and the IC50 BAFF (Δ TACI 30-110-Fc) was 1.33.

B1: Belimumab (antibody, V domains shown)
VH: QVQLQQSGAEVKKPGSSVRVSCKASGGTFNNNAINWVRQAPGQGLEWMGGIIPMFGTAKYSQNFQGRVAITADESTGTASMELSSLRSEDTAVYYCARSRDLLLFPHHALSPWGRGTMVTVSS
VL: SSELTQDPAVSVALGQTVRVTCQGDSLRSYYASWYQQKPGQAPVLVIYGKNNRPSGIPDRFSGSSSGNTASLTITGAQAEDEADYYCSSRDSSGNHWVFGGGTELTVLG
As to B1, in the assay with recombinant human APRIL [3], the “IC50 (nM) APRIL” value stood at 215000 nM and the “IC50 APRIL (Δ TACI 30-110-Fc)” value came to 55.8 ratio. In the assay with recombinant human BAFF [4], the “IC50 (nM) BAFF” value was 2500 nM and the “IC50 BAFF (Δ TACI 30-110-Fc)” value is 0.43 ratio.

B2: CTLA-4 186 GSG4S Fc (G4S)4 (TACI 542) (Fc fusion)
chain: KAMHVAQPAVVLASSRGIASFVCEYASPWKATEVRVTVLRQADSQVTEVCAATYMMGNELTFLDDSICTGTSSGNQVNLTIQGLRAMDTGLYICKVEQMYPPPYLLGIGNGTQIYVIDPEPCPDSDGSGGGGSEPKSSDKTHTCPPCPAPEAEGAPSVFLFPPKPKDTLMISRTPEVTCVVVDVSHEDPEVKFNWYVDGVEVHNAKTKPREEQYNSTYRVVSVLTVLHQDWLNGKEYKCKVSNKALPAPIEKTISKAKGQPREPQVYTLPPSRDELTKNQVSLTCLVKGFYPSDIAVEWESNGQPENNYKTTPPVLDSDGSFFLYSKLTVDKSRWQQGNVFSCSVMHEALHNHYTQKSLSLSPGGGGGSGGGGSGGGGSGGGGSSLSCRKEEGKFYDHLLQDCISCASICGQHPKQCAYFCENKLRS
Regarding B2, the “IC50 (nM) APRIL” value with recombinant human APRIL [5] worked out at 2.49 nM. For the same molecule, the “IC50 (nM) BAFF” value in the assay with recombinant human BAFF [6] stood at 0.153 nM. In the assay with human CD80, the “CD80 IC50” value came out at 82.6 nM and the “CD80 IC50 (Δ Parental CTLA-4)” value was found to be 2.5 ratio. In the assay with human CD86, the “CD86 IC50” value is 9 nM and the “CD86 IC50 (Δ Parental CTLA-4)” value amounted to 1.1 ratio.

B3: CTLA-4 186-GSG4S-Fc-(G4S)4-BCMA 406 (Fc fusion)
chain: KAMHVAQPAVVLASSRGIASFVCEYASPWKATEVRVTVLRQADSQVTEVCAATYMMGNELTFLDDSICTGTSSGNQVNLTIQGLRAMDTGLYICKVEQMYPPPYLLGIGNGTQIYVIDPEPCPDSDGSGGGGSEPKSSDKTHTCPPCPAPEAEGAPSVFLFPPKPKDTLMISRTPEVTCVVVDVSHEDPEVKFNWYVDGVEVHNAKTKPREEQYNSTYRVVSVLTVLHQDWLNGKEYKCKVSNKALPAPIEKTISKAKGQPREPQVYTLPPSRDELTKNQVSLTCLVKGFYPSDIAVEWESNGQPENNYKTTPPVLDSDGSFFLYSKLTVDKSRWQQGNVFSCSVMHEALHNHYTQKSLSLSPGGGGGSGGGGSGGGGSGGGGSLQMAGQCSQNEYFDSLLLACIPCQLRCSSNTPPLTCQRYCNASVTNSVKGTNA
In the case of B3, the “IC50 (nM) APRIL” value in the assay with recombinant human APRIL [5] came out at 0.997 nM. Further, the “IC50 (nM) BAFF” value with recombinant human BAFF [6] came out at 0.49 nM. Further, in the assay with recombinant human APRIL [3], the “IC50 (nM) APRIL” value came to 269 nM and the “IC50 APRIL (Δ TACI 30-110-Fc)” value is 0.07 ratio. In the assay with recombinant human BAFF [4], the “IC50 (nM) BAFF” value is 2630 nM and the “IC50 BAFF (Δ TACI 30-110-Fc)” value is 0.46 ratio. Also, in the assay with human CD80, the “CD80 IC50” value was found to be 25.2 nM and the “CD80 IC50 (Δ Parental CTLA-4)” value turned out to be 0.8 ratio. Besides, in the assay with human CD86, the “CD86 IC50” value stood at 8.1 nM and the “CD86 IC50 (Δ Parental CTLA-4)” value stood at 1.3 ratio.

B4: 528 TACI CRD2-Fc (Fc fusion, not shown: a dimerising Fc or GST)
chain: SLSCRKEQGKFYDHLLRDCISCASICGQHPKQCAYFCENKLRS
modifications: not fully specified (C-terminus); cysteine pairing not given here; also: Fc fusion, linker and Fc not given here
For the molecule B4, in assay [1], the IC50 (nM) APRIL was determined as 369 nM and the IC50 APRIL (Δ TACI 30-110-Fc) came to 0.1. Moreover, in assay [2], the IC50 (nM) BAFF is 1330 nM and the IC50 BAFF (Δ TACI 30-110-Fc) was 0.23.
